Data: paper PMC3267046, “Structure of Ddn, the Deazaflavin-Dependent Nitroreductase from Mycobacterium tuberculosis Involved in Bioreductive Activation of PA-824” (Structure(London, England:1993), 2012)

B1: MBP-Ddn fusion protein, full-length wild-type deazaflavin-dependent nitroreductase (Ddn, Rv3547) fro (enzyme)
chain: MPKSPPRFLNSPLSDFFIKWMSRINTWMYRRNDGEGLGGTFQKIPVALLTTTGRKTGQPRVNPLYFLRDGGRVIVAASKGGAEKNPMWYLNLKANPKVQVQIKKEVLDLTARDATDEERAEYWPQLVTMYPSYQDYQSWTDRTIPIVVCEP
notes: also called WT MBP-Ddn
B2: Untagged wild-type Ddn (full length), produced by proteolytic removal of MBP (enzyme)
chain: B1 chain
notes: also called Untagged Ddn; untagged WT Ddn

Target: the molecule itself
Assay: SEC

Protein | binding result
B1 | binds
B2 | binds
